Laboratory results reported in CN117603358A.

Experiments:
[1] = molecular target: S蛋白, SARS-CoV-2 Delta (SARS-CoV-2 Delta); assay: cell-based or functional assay
[2] = molecular target: S蛋白, SARS-CoV-2 BA.2.75 (SARS-CoV-2 BA.2.75); assay: cell-based or functional assay
[3] = molecular target: S蛋白, SARS-CoV-2 BQ.1.1 (SARS-CoV-2 BQ.1.1); assay: cell-based or functional assay
[4] = molecular target: S蛋白, SARS-CoV-2 BA.1 (SARS-CoV-2 BA.1); assay: cell-based or functional assay
[5] = molecular target: S蛋白, SARS-CoV-2 XBB.1.5 (SARS-CoV-2 XBB.1.5); assay: cell-based or functional assay
[6] = molecular target: S蛋白, SARS-CoV-2 BA.4/5 (SARS-CoV-2 BA.4/5); assay: cell-based or functional assay
[7] = molecular target: S蛋白, SARS-CoV-2 BF.7 (SARS-CoV-2 BF.7); assay: cell-based or functional assay
[8] = molecular target: S蛋白, SARS-CoV-2 BQ.1 (SARS-CoV-2 BQ.1); assay: cell-based or functional assay
[9] = molecular target: S蛋白, SARS-CoV-2 XBB (SARS-CoV-2 XBB); assay: cell-based or functional assay
[10] = molecular target: SARS-CoV-2(BF.7) Spike RBD (SARS-CoV-2 BF.7); assay: SPR (Biacore 8K), antibody captured on Protein A chip, RBD as analyte
[11] = molecular target: SARS-CoV-2(BA.5) Spike RBD (SARS-CoV-2 BA.5); assay: as above

## LY-CoV1404 (antibody)
[1]
  假病毒中和活性 IC50: 3.05 ng/mL
[2]
  假病毒中和活性 IC50: 25.1 ng/mL
[3]
  假病毒中和活性 IC50: > 2000 ng/mL
[4]
  假病毒中和活性 IC50: 1.44 ng/mL
[5]
  假病毒中和活性 IC50: > 2000 ng/mL
[6]
  假病毒中和活性 IC50: 1.22 ng/mL
[7]
  假病毒中和活性 IC50: 2.14 ng/mL
[8]
  假病毒中和活性 IC50: > 2000 ng/mL
[9]
  假病毒中和活性 IC50: > 2000 ng/mL
[10]
  Kd: 162 pM
[11]
  Kd: 184 pM
